Experimental data reported in patent US20250367288A1, “DELIVERY OF MULTI-CYTOKINE SIGNALS BY OVEREXPRESSION OF WILD-TYPE OR MUTANT SIGNAL TRANSDUCTION MOLECULES” (THE TRUSTEES OF THE UNIVERSITY OF PENNSYLVANIA, priority 2021, published 2025).

How the values were obtained:
T cells expressing TPOR = test: Stimulation of T cells expressing TPOR for 7 days; cell number and percent transgenic cells by flow cytometry; format: cell-based, human; conditions: 0.1 μg/ml; for TPOR fraction after addition of agonist: enriched from 12.9% without addition
Procedure: (§1) FIG. 12: T cells transduced to express (i) the thrombopoietin receptor (TPOR) or (ii) the GCF receptor with a deletion at aa 715 (GCSFRd715) are active and can drive T cell proliferation via the non-canonical JAK2 pathway. T cells expressing GCSFRd715, TPOR, or the truncated NGFR as a control were stimulated for 7 days with IL-2/IL-7/IL-15 (all at 5 ng/ml; denoted as CK; positive control condition), 0.1 μg/ml recombinant thrombopoietin (TPO), 0.1 μg/ml TPO agonist eltrombopag (EP), or 0.1 μg/ml GCSF. Cell number (top) or percent transgenic cells (bottom) were quantified using flow cytometry at 7 days.
(§2) FIG. 13: Exemplary flow cytometry plots showing that exposure of transgenic cytokine receptor transduced cells to the cognate cytokine (i.e. GCSFRd715 to GCSF; TPOR to TPO or EP) leads to enrichment of CAR expressing cells at 7 days. Addition of GCSF enriched the GCSRFd715 transgenic cell fraction from 15.6% to 64.9% (top panel). Addition of TPO enriched the TPOR fraction from 12.9% to 82% and addition of EP enriched the TPOR fraction from 12.9% to 55.9% (bottom panel).
(§3) Healthy donor T cells were transduced to express (i) the thrombopoietin receptor (TPOR) or (ii) the GCF receptor with a deletion at aa 715 (GCSFRd715). T cells expressing GCSFRd715, TPOR, or the truncated NGFR as a control were stimulated for 7 days with IL-2/IL-7/IL-15 (all at 5 ng/ml; denoted as CK; positive control condition), 0.1 μg/ml recombinant thrombopoietin (TPO), 0.1 μg/ml TPO agonist eltrombopag (EP), or 0.1 μg/ml GCSF. Cell number (FIG. 12, top) or percent transgenic cells (FIG. 12, bottom) were quantified using flow cytometry at 7 days.

[1] = target: GCF receptor with a deletion at aa 715 (GCSFRd715) (UniProt Q99062); test: cell-based or functional assay
[2] = tested on: T cells expressing the truncated NGFR; test: Stimulation of negative control T cells expressing truncated NGFR for 7 days; flow cytometry; format: cell-based, human; conditions: 0.1 μg/ml
Procedure: as §1, §3

TPOR = test: Phosphorylation of STAT3 and STAT5 in TPOR expressing T cells after 24 hours stimulation, flow cytometry; format: cell-based, human; conditions: 0.1 μg/ml
Procedure: (§4) FIG. 14: TPOR stimulation leads to activation of STAT3 and STAT5. Healthy donor T cells expressing TPOR or untransduced control T cells were stimulated for 24 hours with 5 ng/ml IL-2/IL-7/IL-15 (CK), 0.1 μg/ml TPO or 0.1 μg/ml Eltrombopag (EP). Following stimulation cells were fixed and the phosphorylation of STAT3 and STAT5 quantified using flow cytometry.
as §4, with “TPOR” for “FIG. 14: TPOR”, “stimulation led” for “stimulation leads”, “and STAT5 (FIG. 14).” for “and STAT5.”, “μg/ml TPO,” for “μg/ml TPO”

[3] = target: thrombopoietin receptor (TPOR) (UniProt P40238); test: cell-based or functional assay
[4] = tested on: T cells expressing GCSFRd715; test: Stimulation of T cells expressing GCSFRd715 for 7 days; cell number and percent transgenic cells by flow cytometry; format: cell-based, human; conditions: 0.1 μg/ml
Procedure: as §1, §2
Healthy donor T cells were transduced to express (i) the thrombopoietin receptor (TPOR) or (ii) the GCF receptor with a deletion at aa 715 (GCSFRd715). […] Cell number (FIG. 12, top) or percent transgenic cells (FIG. 12, bottom) were quantified using flow cytometry at 7 days.

G-CSFR = test: Enrichment of G-CSFR transgenic T cells upon administration of G-CSF; format: cell-based; conditions: primary human T cells expressing G-CSFR
Excerpt: FIG. 7: Strong and specific enrichment of transgenic cells upon administration of G-CSF.
Ectopic expression of a myeloid cytokine receptor (G-CSFR) can be used to modulate CAR-T proliferation, and these T cells could then be inhibited by JAK2 inhibitors (e.g., FDA-approved JAK2 inhibitors such as ruxolitinib and others) (FIG. 6). […] The G-CSF receptor can be further modified to mediate downstream signaling that is normally associated with the T cell activating cytokine IL2 (chimeric G-CSF receptor) (FIG. 8). A pTRPE construct was used for the overexpression of G-CSFR IL2Rβ/IL2RG cytokine receptor (FIG. 9). The HEK IL2 Blue reporter cell line receptor (www.invivogen.com/hek-blue-il2) was used for screening the synthetic cytokine.

Chain of UniProt Q99062 (Q99062 25-738 limits assumed, stated change not applied): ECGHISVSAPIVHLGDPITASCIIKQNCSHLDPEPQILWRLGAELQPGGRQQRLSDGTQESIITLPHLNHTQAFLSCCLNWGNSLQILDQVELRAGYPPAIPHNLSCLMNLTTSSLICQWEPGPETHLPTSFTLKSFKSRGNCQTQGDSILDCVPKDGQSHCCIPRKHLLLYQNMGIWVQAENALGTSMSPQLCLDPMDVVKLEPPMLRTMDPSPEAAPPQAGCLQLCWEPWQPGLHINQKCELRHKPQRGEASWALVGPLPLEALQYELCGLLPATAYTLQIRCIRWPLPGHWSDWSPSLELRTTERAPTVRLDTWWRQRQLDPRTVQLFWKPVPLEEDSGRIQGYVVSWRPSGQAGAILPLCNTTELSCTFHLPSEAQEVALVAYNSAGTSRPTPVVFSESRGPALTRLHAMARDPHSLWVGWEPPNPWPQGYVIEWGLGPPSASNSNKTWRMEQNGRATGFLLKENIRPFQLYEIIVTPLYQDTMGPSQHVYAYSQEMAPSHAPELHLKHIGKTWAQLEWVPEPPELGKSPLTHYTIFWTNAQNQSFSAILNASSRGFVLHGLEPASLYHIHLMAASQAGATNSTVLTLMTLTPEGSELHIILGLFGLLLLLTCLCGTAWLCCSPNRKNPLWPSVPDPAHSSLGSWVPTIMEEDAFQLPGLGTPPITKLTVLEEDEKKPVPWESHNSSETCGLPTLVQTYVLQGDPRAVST

Row | Molecule | TPOR fraction after addition of agonist (T cells expressing TPOR) | Response of TPOR cells to stimulation (cell number) (T cells expressing TPOR) | Response of negative control cells (NGFR) to stimulation [2] | other results
1 | CC1=NN(c2ccc(C)c(C)c2)C(=O)/C1=N\Nc1cccc(-c2cccc(C(=O)O)c2)c1O [EP, eltrombopag, reference compound] | 55.9% | – | – | –
2 | GCSF (from UniProt P09919 31-204) (ligand) | – | – | – | percent transgenic cells by flow cytometry after 7 days [1]: 64.9%
3 | TPO: recombinant thrombopoietin | 82% | responded | did not respond | STAT5 and STAT3 phosphorylation in TPOR expressing T cells (TPOR): leads to STAT5 and STAT3 phosphorylation
4 | recombinant thrombopoietin (TPO) (from UniProt P40225 22-353) (ligand) | – | – | – | percent transgenic cells by flow cytometry after 7 days [3]: 82%
5 | GCSF: cognate cytokine of the G-CSF receptor, used at 0.1 μg/ml (protein) TPLGPASSLPQSFLLKCLEQVRKIQGDGAALQEKLCATYKLCHPEELVLLGHSLGIPWAPLSSCPSQALQLAGCLSQLHSGLFLYQGLLQALEGISPELGPTLDTLQLDVADFATTIWQQMEELGMAPALQPTQGAMPAFASAFQRRAGGVLVASHLQSFLEVSYRVLRHLAQP | – | not | did not respond | Response of GCSFRd715 cells to stimulation (cell number) [4]: responded; GCSRFd715 transgenic cell fraction after addition of cytokine ([4]; enriched from 15.6% without addition): 64.9%; Enrichment of transgenic cells upon administration of G-CSF (G-CSFR): Strong enrichment
